Reference: US20080207488A1, “Method for Detecting Peptides Comprising a Cross-B Structure” (priority 2005, published 2008)

Columns and labels:
[1] = target: tissue-type plasminogen activator (tPA) (human) (UniProt P00750); experiment: cell-based or functional assay
[2] = target: human coagulation factor VIII isolated from healthy volunteers (Aafact) (human) (UniProt P00451); experiment: ELISA, therapeutic coated, tPA concentration series, one-site binding fit
Sequence of human coagulation factor VIII isolated from healthy volunteers (Aafact) (human) (P00451 20-2351): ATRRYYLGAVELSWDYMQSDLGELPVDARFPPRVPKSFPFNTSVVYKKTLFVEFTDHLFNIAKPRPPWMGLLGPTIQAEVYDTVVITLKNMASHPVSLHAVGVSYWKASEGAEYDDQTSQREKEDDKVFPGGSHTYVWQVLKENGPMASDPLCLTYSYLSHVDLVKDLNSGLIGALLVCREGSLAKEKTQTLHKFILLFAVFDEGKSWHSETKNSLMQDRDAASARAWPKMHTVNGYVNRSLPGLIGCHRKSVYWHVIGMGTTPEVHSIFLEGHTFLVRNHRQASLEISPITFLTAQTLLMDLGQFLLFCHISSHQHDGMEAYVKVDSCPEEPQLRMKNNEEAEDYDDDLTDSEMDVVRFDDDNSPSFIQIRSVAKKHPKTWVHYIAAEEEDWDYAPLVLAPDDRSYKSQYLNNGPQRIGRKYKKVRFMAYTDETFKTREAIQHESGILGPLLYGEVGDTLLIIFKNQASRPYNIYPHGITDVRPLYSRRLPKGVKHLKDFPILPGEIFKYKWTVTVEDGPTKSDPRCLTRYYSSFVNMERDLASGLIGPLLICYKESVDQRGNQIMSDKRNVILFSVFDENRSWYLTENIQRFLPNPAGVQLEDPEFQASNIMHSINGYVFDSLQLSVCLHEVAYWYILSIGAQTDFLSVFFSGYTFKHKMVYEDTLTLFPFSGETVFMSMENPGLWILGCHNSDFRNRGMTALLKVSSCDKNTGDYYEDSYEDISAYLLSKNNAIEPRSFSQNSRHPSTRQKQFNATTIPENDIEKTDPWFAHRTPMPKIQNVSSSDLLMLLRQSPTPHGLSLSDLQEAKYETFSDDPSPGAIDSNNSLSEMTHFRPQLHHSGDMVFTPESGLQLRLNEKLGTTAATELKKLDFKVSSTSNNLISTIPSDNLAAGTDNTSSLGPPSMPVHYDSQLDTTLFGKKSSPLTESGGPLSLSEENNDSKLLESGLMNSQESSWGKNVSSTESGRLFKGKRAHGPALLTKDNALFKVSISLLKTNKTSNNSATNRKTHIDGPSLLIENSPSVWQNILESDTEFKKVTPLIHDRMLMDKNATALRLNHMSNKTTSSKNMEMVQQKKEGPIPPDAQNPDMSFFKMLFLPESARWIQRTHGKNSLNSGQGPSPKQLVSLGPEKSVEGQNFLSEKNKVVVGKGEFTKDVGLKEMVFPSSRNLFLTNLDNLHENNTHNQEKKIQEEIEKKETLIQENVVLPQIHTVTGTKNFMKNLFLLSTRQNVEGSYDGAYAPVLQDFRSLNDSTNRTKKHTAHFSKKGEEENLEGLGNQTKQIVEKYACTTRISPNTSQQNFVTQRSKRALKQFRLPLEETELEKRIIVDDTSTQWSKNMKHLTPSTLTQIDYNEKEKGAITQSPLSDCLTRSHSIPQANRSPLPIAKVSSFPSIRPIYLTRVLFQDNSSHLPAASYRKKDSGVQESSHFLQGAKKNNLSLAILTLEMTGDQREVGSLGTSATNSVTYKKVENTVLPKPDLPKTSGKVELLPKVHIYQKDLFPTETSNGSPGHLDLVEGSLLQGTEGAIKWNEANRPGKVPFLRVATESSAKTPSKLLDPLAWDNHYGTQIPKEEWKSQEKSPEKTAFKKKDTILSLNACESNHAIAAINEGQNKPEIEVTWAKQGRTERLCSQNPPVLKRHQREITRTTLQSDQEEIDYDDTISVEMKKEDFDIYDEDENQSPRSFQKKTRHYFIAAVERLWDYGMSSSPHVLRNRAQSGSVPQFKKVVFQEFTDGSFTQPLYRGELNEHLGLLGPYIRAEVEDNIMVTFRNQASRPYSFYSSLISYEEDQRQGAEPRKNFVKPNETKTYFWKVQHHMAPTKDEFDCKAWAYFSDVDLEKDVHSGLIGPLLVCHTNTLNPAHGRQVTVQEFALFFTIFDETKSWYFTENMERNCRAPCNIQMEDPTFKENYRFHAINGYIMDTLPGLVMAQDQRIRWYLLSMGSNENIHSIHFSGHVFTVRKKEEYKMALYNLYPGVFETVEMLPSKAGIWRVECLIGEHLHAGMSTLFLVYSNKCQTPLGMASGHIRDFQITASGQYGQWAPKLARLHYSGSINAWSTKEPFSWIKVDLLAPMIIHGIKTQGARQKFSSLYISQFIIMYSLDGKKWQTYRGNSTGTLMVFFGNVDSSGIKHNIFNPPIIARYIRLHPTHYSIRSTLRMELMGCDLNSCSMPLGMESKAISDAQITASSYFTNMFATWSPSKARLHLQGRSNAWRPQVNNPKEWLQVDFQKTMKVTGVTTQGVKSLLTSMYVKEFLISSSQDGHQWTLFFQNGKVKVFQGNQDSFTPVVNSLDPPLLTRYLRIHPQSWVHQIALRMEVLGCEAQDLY

Substance	tPA activation, Max. Activation (%) [1]	Bmax (OD450 nm) [2]	Kd [2]
Epoietin Alfa (from UniProt P01588 28-192) (ligand)	0%	–	–
human-murine chimeric monoclonal antibody (Remicade-infliximab)	0%	–	–
human coagulation factor VIII isolated from healthy volunteers (Aafact) (from UniProt P00451 20-2351)	4.22%	–	–

Second part, the substance after the results:

tPA activation, Max. Activation (%) [1]	Bmax (OD450 nm) [2]	Kd [2]	Substance
0%	–	–	Etanercept (Enbrel) (Fc fusion)
–	0.54 OD450 nm	230 nM	tissue-type plasminogen activator (tPA) (from UniProt P00750 36-562) (enzyme)
11.2%	–	–	human glucagon (Glucagen) (from UniProt P01275 53-81) (peptide)
70.9%	–	–	rapid acting human insulin analogue (NovoRapid Flexpen) (from UniProt P01308 90-110; P01308 25-54) (ligand)
